According to patent US20210388087A1 (Chugai, published 2021):

B1: H183/L072 VL R54I (antibody, name in Kabat numbering, V domains shown)
VH: QVQLVESGGGLVQPGRSLRLSCAASGFTFSNAWMHWVRQAPGKGLEWVAQIKDKGNAYAAYYAPSVKGRFTISRDDSKNSIYLQMNSLKTEDTAVYYCHYVHYASASTVLPAFGVDAWGQGTTVTVSS
VL: DIVMTQSPLSLPVTPGEPASISCQASQELVHMNRNTYLHWYQQKPGQAPRLLIYKVSNIFPGVPDRFSGSGSGTDFTLKISRVEAEDVGVYYCAQGTSVPFTFGQGTKLEIK
notes: Dual-Ig
B2: H183/L072 VL S26F (antibody, name in Kabat numbering, V domains shown)
VH: QVQLVESGGGLVQPGRSLRLSCAASGFTFSNAWMHWVRQAPGKGLEWVAQIKDKGNAYAAYYAPSVKGRFTISRDDSKNSIYLQMNSLKTEDTAVYYCHYVHYASASTVLPAFGVDAWGQGTTVTVSS
VL: DIVMTQSPLSLPVTPGEPASISCQAFQELVHMNRNTYLHWYQQKPGQAPRLLIYKVSNRFPGVPDRFSGSGSGTDFTLKISRVEAEDVGVYYCAQGTSVPFTFGQGTKLEIK
notes: Dual-Ig
B3: H183/L072 VL S26D (antibody, name in Kabat numbering, V domains shown)
VH: QVQLVESGGGLVQPGRSLRLSCAASGFTFSNAWMHWVRQAPGKGLEWVAQIKDKGNAYAAYYAPSVKGRFTISRDDSKNSIYLQMNSLKTEDTAVYYCHYVHYASASTVLPAFGVDAWGQGTTVTVSS
VL: DIVMTQSPLSLPVTPGEPASISCQADQELVHMNRNTYLHWYQQKPGQAPRLLIYKVSNRFPGVPDRFSGSGSGTDFTLKISRVEAEDVGVYYCAQGTSVPFTFGQGTKLEIK
notes: Dual-Ig
B4: H183/L072 VL R54K (antibody, name in Kabat numbering, V domains shown)
VH: QVQLVESGGGLVQPGRSLRLSCAASGFTFSNAWMHWVRQAPGKGLEWVAQIKDKGNAYAAYYAPSVKGRFTISRDDSKNSIYLQMNSLKTEDTAVYYCHYVHYASASTVLPAFGVDAWGQGTTVTVSS
VL: DIVMTQSPLSLPVTPGEPASISCQASQELVHMNRNTYLHWYQQKPGQAPRLLIYKVSNKFPGVPDRFSGSGSGTDFTLKISRVEAEDVGVYYCAQGTSVPFTFGQGTKLEIK
notes: Dual-Ig
B5: H183/L072 VL R54L (antibody, name in Kabat numbering, V domains shown)
VH: QVQLVESGGGLVQPGRSLRLSCAASGFTFSNAWMHWVRQAPGKGLEWVAQIKDKGNAYAAYYAPSVKGRFTISRDDSKNSIYLQMNSLKTEDTAVYYCHYVHYASASTVLPAFGVDAWGQGTTVTVSS
VL: DIVMTQSPLSLPVTPGEPASISCQASQELVHMNRNTYLHWYQQKPGQAPRLLIYKVSNLFPGVPDRFSGSGSGTDFTLKISRVEAEDVGVYYCAQGTSVPFTFGQGTKLEIK
notes: Dual-Ig
B6: H183/L072 VL S26E (antibody, name in Kabat numbering, V domains shown)
VH: QVQLVESGGGLVQPGRSLRLSCAASGFTFSNAWMHWVRQAPGKGLEWVAQIKDKGNAYAAYYAPSVKGRFTISRDDSKNSIYLQMNSLKTEDTAVYYCHYVHYASASTVLPAFGVDAWGQGTTVTVSS
VL: DIVMTQSPLSLPVTPGEPASISCQAEQELVHMNRNTYLHWYQQKPGQAPRLLIYKVSNRFPGVPDRFSGSGSGTDFTLKISRVEAEDVGVYYCAQGTSVPFTFGQGTKLEIK
notes: Dual-Ig
B7: H183/L072 VL R54T (antibody, name in Kabat numbering, V domains shown)
VH: QVQLVESGGGLVQPGRSLRLSCAASGFTFSNAWMHWVRQAPGKGLEWVAQIKDKGNAYAAYYAPSVKGRFTISRDDSKNSIYLQMNSLKTEDTAVYYCHYVHYASASTVLPAFGVDAWGQGTTVTVSS
VL: DIVMTQSPLSLPVTPGEPASISCQASQELVHMNRNTYLHWYQQKPGQAPRLLIYKVSNTFPGVPDRFSGSGSGTDFTLKISRVEAEDVGVYYCAQGTSVPFTFGQGTKLEIK
notes: Dual-Ig
B8: H183/L072 VL S26H (antibody, name in Kabat numbering, V domains shown)
VH: QVQLVESGGGLVQPGRSLRLSCAASGFTFSNAWMHWVRQAPGKGLEWVAQIKDKGNAYAAYYAPSVKGRFTISRDDSKNSIYLQMNSLKTEDTAVYYCHYVHYASASTVLPAFGVDAWGQGTTVTVSS
VL: DIVMTQSPLSLPVTPGEPASISCQAHQELVHMNRNTYLHWYQQKPGQAPRLLIYKVSNRFPGVPDRFSGSGSGTDFTLKISRVEAEDVGVYYCAQGTSVPFTFGQGTKLEIK
notes: Dual-Ig
B9: H183/L072 VL R54W (antibody, name in Kabat numbering, V domains shown)
VH: QVQLVESGGGLVQPGRSLRLSCAASGFTFSNAWMHWVRQAPGKGLEWVAQIKDKGNAYAAYYAPSVKGRFTISRDDSKNSIYLQMNSLKTEDTAVYYCHYVHYASASTVLPAFGVDAWGQGTTVTVSS
VL: DIVMTQSPLSLPVTPGEPASISCQASQELVHMNRNTYLHWYQQKPGQAPRLLIYKVSNWFPGVPDRFSGSGSGTDFTLKISRVEAEDVGVYYCAQGTSVPFTFGQGTKLEIK
notes: Dual-Ig
B10: H183/L072 VL R54Q (antibody, name in Kabat numbering, V domains shown)
VH: QVQLVESGGGLVQPGRSLRLSCAASGFTFSNAWMHWVRQAPGKGLEWVAQIKDKGNAYAAYYAPSVKGRFTISRDDSKNSIYLQMNSLKTEDTAVYYCHYVHYASASTVLPAFGVDAWGQGTTVTVSS
VL: DIVMTQSPLSLPVTPGEPASISCQASQELVHMNRNTYLHWYQQKPGQAPRLLIYKVSNQFPGVPDRFSGSGSGTDFTLKISRVEAEDVGVYYCAQGTSVPFTFGQGTKLEIK
notes: Dual-Ig
B11: H183/L072 VL R54P (antibody, name in Kabat numbering, V domains shown)
VH: QVQLVESGGGLVQPGRSLRLSCAASGFTFSNAWMHWVRQAPGKGLEWVAQIKDKGNAYAAYYAPSVKGRFTISRDDSKNSIYLQMNSLKTEDTAVYYCHYVHYASASTVLPAFGVDAWGQGTTVTVSS
VL: DIVMTQSPLSLPVTPGEPASISCQASQELVHMNRNTYLHWYQQKPGQAPRLLIYKVSNPFPGVPDRFSGSGSGTDFTLKISRVEAEDVGVYYCAQGTSVPFTFGQGTKLEIK
notes: Dual-Ig
B12: H183/L072 VL R54M (antibody, name in Kabat numbering, V domains shown)
VH: QVQLVESGGGLVQPGRSLRLSCAASGFTFSNAWMHWVRQAPGKGLEWVAQIKDKGNAYAAYYAPSVKGRFTISRDDSKNSIYLQMNSLKTEDTAVYYCHYVHYASASTVLPAFGVDAWGQGTTVTVSS
VL: DIVMTQSPLSLPVTPGEPASISCQASQELVHMNRNTYLHWYQQKPGQAPRLLIYKVSNMFPGVPDRFSGSGSGTDFTLKISRVEAEDVGVYYCAQGTSVPFTFGQGTKLEIK
notes: Dual-Ig
B13: H183/L072 VL S26G (antibody, name in Kabat numbering, V domains shown)
VH: QVQLVESGGGLVQPGRSLRLSCAASGFTFSNAWMHWVRQAPGKGLEWVAQIKDKGNAYAAYYAPSVKGRFTISRDDSKNSIYLQMNSLKTEDTAVYYCHYVHYASASTVLPAFGVDAWGQGTTVTVSS
VL: DIVMTQSPLSLPVTPGEPASISCQAGQELVHMNRNTYLHWYQQKPGQAPRLLIYKVSNRFPGVPDRFSGSGSGTDFTLKISRVEAEDVGVYYCAQGTSVPFTFGQGTKLEIK
notes: Dual-Ig
B14: H183/L072 VL R54S (antibody, name in Kabat numbering, V domains shown)
VH: QVQLVESGGGLVQPGRSLRLSCAASGFTFSNAWMHWVRQAPGKGLEWVAQIKDKGNAYAAYYAPSVKGRFTISRDDSKNSIYLQMNSLKTEDTAVYYCHYVHYASASTVLPAFGVDAWGQGTTVTVSS
VL: DIVMTQSPLSLPVTPGEPASISCQASQELVHMNRNTYLHWYQQKPGQAPRLLIYKVSNSFPGVPDRFSGSGSGTDFTLKISRVEAEDVGVYYCAQGTSVPFTFGQGTKLEIK
notes: Dual-Ig
B15: H183/L072 VL R54V (antibody, name in Kabat numbering, V domains shown)
VH: QVQLVESGGGLVQPGRSLRLSCAASGFTFSNAWMHWVRQAPGKGLEWVAQIKDKGNAYAAYYAPSVKGRFTISRDDSKNSIYLQMNSLKTEDTAVYYCHYVHYASASTVLPAFGVDAWGQGTTVTVSS
VL: DIVMTQSPLSLPVTPGEPASISCQASQELVHMNRNTYLHWYQQKPGQAPRLLIYKVSNVFPGVPDRFSGSGSGTDFTLKISRVEAEDVGVYYCAQGTSVPFTFGQGTKLEIK
notes: Dual-Ig

Target: T1, Human CD137 ECD (human)
T1 construct: entry includes C-terminal His-tag and biotin acceptor peptide; also called human CD137 extracellular domain; 4-1BB
Assay: Biacore SPR, vs parent H183/L072

T1 sequence (chain, as listed by the source limits assumed): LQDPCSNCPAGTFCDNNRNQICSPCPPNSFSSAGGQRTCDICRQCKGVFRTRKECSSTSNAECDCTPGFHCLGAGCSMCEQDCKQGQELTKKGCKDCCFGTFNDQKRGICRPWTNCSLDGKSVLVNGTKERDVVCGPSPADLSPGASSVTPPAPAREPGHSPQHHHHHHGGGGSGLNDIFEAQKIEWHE

Q: B1 was tested. Which “fold change of affinity” value did it give?
A: 1 fold

Q: How did the “fold change of affinity” value turn out when B2 was run?
A: 0.2 fold

Q: For B3, which “fold change of affinity” value is on record?
A: 0.8 fold

Q: For B4, which “fold change of affinity” value is on record?
A: 1 fold

Q: For B5, which “fold change of affinity” value is on record?
A: 0.9 fold

Q: How did the “fold change of affinity” value turn out when B6 was run?
A: 0.8 fold

Q: B7 was tested. Which “fold change of affinity” value did it give?
A: 2.5 fold

Q: B8 was tested. Which “fold change of affinity” value did it give?
A: 0.2 fold

Q: B9 was tested. Which “fold change of affinity” value did it give?
A: 0.4 fold

Q: B10 was tested. Which “fold change of affinity” value did it give?
A: 0.8 fold

Q: With B11 as the binder, how does the “fold change of affinity” value read?
A: 0.9 fold

Q: With B12 as the binder, how does the “fold change of affinity” value read?
A: 0.5 fold

Q: With B13 as the binder, how does the “fold change of affinity” value read?
A: 0.9 fold

Q: B14 was tested. Which “fold change of affinity” value did it give?
A: 0.9 fold

Q: With B15 as the binder, how does the “fold change of affinity” value read?
A: 1.3 fold
